US8840891 (RSR, dated 2014)
Where two headings read alike, the source gives them in different places.

Columns and labels:
Experiment in all cases: cell-based or functional assay
[1] = biological target: TSHR with Arg109 mutated to Alanine (human) (UniProt P16473)
[2] = biological target: wild type human TSHR (human) (UniProt P16473)
[3] = biological target: wild type human TSHR (human) (UniProt P16473); remark: listed apart in the source
[4] = biological target: wild type human TSHR (human) (UniProt P16473); remark: listed apart in the source
[5] = biological target: TSHR with Gln235 mutated to Alanine (human) (UniProt P16473)
[6] = biological target: TSHR with Arg255 mutated to Aspartic acid (human) (UniProt P16473)
[7] = biological target: wild type human TSHR (human) (UniProt P16473); remark: listed apart in the source

Chain of 5C9 IgG (antibody) (VH): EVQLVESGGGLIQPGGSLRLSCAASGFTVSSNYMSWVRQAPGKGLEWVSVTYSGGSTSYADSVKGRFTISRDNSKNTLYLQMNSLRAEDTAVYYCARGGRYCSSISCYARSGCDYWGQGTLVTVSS
Chain of 5C9 IgG (antibody) (VL): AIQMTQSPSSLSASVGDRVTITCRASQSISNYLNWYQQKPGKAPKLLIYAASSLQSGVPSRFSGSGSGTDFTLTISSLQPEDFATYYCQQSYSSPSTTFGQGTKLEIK

In the case of 5C9 IgG (antibody), the Mutated/wild type (%); 5C9 0.01 µg/mL + TSH [1] is reported as 89%, the Mutated/wild type (%); 5C9 0.1 µg/mL + TSH [1] is reported as 43% and the Mutated/wild type (%); 5C9 1.0 µg/mL + TSH [1] is reported as 69%. The Mutated/wild type (%); 5C9 10 µg/mL + TSH [1] was 117%, the Mutated/wild type (%); 5C9 100 µg/mL + TSH [1] was 46% and the Mutated/wild type (%); 5C9 100 µg/mL only [1] was 147%. It also gave a cyclic AMP; 5C9 0.01 µg/mL + TSH (fmol/cell well) [1] of 9650, a cyclic AMP; 5C9 0.1 µg/mL + TSH (fmol/cell well) [1] of 1720 and a cyclic AMP; 5C9 1.0 µg/mL + TSH (fmol/cell well) [1] of 827. The cyclic AMP; 5C9 10 µg/mL + TSH (fmol/cell well) [1] was 827, the cyclic AMP; 5C9 100 µg/mL + TSH (fmol/cell well) [1] was 561 and the cyclic AMP; 5C9 100 µg/mL only (fmol/cell well) [1] was 335. For the same substance, the cyclic AMP; 5C9 0.01 µg/mL + TSH (fmol/cell well) [2] was 10800, the cyclic AMP; 5C9 0.1 µg/mL + TSH (fmol/cell well) [2] was 4010 and the cyclic AMP; 5C9 1.0 µg/mL + TSH (fmol/cell well) [2] was 1210. For the same substance, the cyclic AMP; 5C9 10 µg/mL + TSH (fmol/cell well) [2] was 706, the cyclic AMP; 5C9 100 µg/mL + TSH (fmol/cell well) [2] was 1230 and the cyclic AMP; 5C9 100 µg/mL only (fmol/cell well) [2] was 228. It also gave a cyclic AMP; 5C9 0.01 µg/mL + TSH (fmol/cell well) [3] of 19500, a cyclic AMP; 5C9 0.1 µg/mL + TSH (fmol/cell well) [3] of 10500 and a cyclic AMP; 5C9 1.0 µg/mL + TSH (fmol/cell well) [3] of 2620. For the same substance, the cyclic AMP; 5C9 10 µg/mL + TSH (fmol/cell well) [3] was 1190, the cyclic AMP; 5C9 100 µg/mL + TSH (fmol/cell well) [3] was 1320 and the cyclic AMP; 5C9 100 µg/mL only (fmol/cell well) [3] was 211. The cyclic AMP; 5C9 0.01 µg/mL + TSH (fmol/cell well) [4] was 7180, the cyclic AMP; 5C9 0.1 µg/mL + TSH (fmol/cell well) [4] was 7780 and the cyclic AMP; 5C9 1.0 µg/mL + TSH (fmol/cell well) [4] was 2540. For the same substance, the cyclic AMP; 5C9 10 µg/mL + TSH (fmol/cell well) [4] was 532, the cyclic AMP; 5C9 100 µg/mL + TSH (fmol/cell well) [4] was 747 and the cyclic AMP; 5C9 100 µg/mL only (fmol/cell well) [4] was 119. For the same substance, the Mutated/wild type (%); 5C9 0.01 µg/mL + TSH [5] was 244%, the Mutated/wild type (%); 5C9 0.1 µg/mL + TSH [5] was 96% and the Mutated/wild type (%); 5C9 1.0 µg/mL + TSH [5] was 95%. It also gave a Mutated/wild type (%); 5C9 10 µg/mL + TSH [5] of 192%, a Mutated/wild type (%); 5C9 100 µg/mL + TSH [5] of 97% and a Mutated/wild type (%); 5C9 100 µg/mL only [5] of 215%. It also gave a cyclic AMP; 5C9 0.01 µg/mL + TSH (fmol/cell well) [5] of 17500, a cyclic AMP; 5C9 0.1 µg/mL + TSH (fmol/cell well) [5] of 7440 and a cyclic AMP; 5C9 1.0 µg/mL + TSH (fmol/cell well) [5] of 2420. The cyclic AMP; 5C9 10 µg/mL + TSH (fmol/cell well) [5] was 1020, the cyclic AMP; 5C9 100 µg/mL + TSH (fmol/cell well) [5] was 727 and the cyclic AMP; 5C9 100 µg/mL only (fmol/cell well) [5] was 256. For the same substance, the Mutated/wild type (%); 5C9 0.01 µg/mL + TSH [6] was 89%, the Mutated/wild type (%); 5C9 0.1 µg/mL + TSH [6] was 85% and the Mutated/wild type (%); 5C9 1.0 µg/mL + TSH [6] was 57%. The Mutated/wild type (%); 5C9 10 µg/mL + TSH [6] was 59%, the Mutated/wild type (%); 5C9 100 µg/mL + TSH [6] was 94% and the Mutated/wild type (%); 5C9 100 µg/mL only [6] was 201%. The cyclic AMP; 5C9 0.01 µg/mL + TSH (fmol/cell well) [6] was 15700, the cyclic AMP; 5C9 0.1 µg/mL + TSH (fmol/cell well) [6] was 5580 and the cyclic AMP; 5C9 1.0 µg/mL + TSH (fmol/cell well) [6] was 1930. For the same substance, the cyclic AMP; 5C9 10 µg/mL + TSH (fmol/cell well) [6] was 735, the cyclic AMP; 5C9 100 µg/mL + TSH (fmol/cell well) [6] was 1410 and the cyclic AMP; 5C9 100 µg/mL only (fmol/cell well) [6] was 559. The cyclic AMP; 5C9 0.01 µg/mL + TSH (fmol/cell well) [7] was 17500, the cyclic AMP; 5C9 0.1 µg/mL + TSH (fmol/cell well) [7] was 6600 and the cyclic AMP; 5C9 1.0 µg/mL + TSH (fmol/cell well) [7] was 3380. It also gave a cyclic AMP; 5C9 10 µg/mL + TSH (fmol/cell well) [7] of 1240, a cyclic AMP; 5C9 100 µg/mL + TSH (fmol/cell well) [7] of 1510 and a cyclic AMP; 5C9 100 µg/mL only (fmol/cell well) [7] of 278.
